Data from the Immune Epitope Database (IEDB).
Each block holds one sequence with its values, some of them ahead of it.

Assays:
HLA-A*30:01 = assay: IEDB peptide-MHC binding, purified MHC/competitive/radioactivity; filed as Kd, often an IC50 or EC50 that approximates it; ≥ and ≤ were set here for values at or beyond the usual limits of such assays
HLA-A*01:01 [1] = assay: as above
HLA-B*44:02 = assay: as above
HLA-A*69:01 = assay: IEDB peptide-MHC binding, purified MHC/direct/fluorescence; filed as Kd, often an IC50 or EC50 that approximates it; ≥ and ≤ were set here for values at or beyond the usual limits of such assays
HLA-A*02:01 = assay: as above
HLA-A*01:01 [2] = assay: as above
HLA-A*26:01 = assay: IEDB peptide-MHC binding, purified MHC/competitive/radioactivity; filed as Kd, often an IC50 or EC50 that approximates it; ≥ and ≤ were set here for values at or beyond the usual limits of such assays
HLA-A*23:01 = assay: as above
HLA-A*24:02 = assay: as above
HLA-A*29:02 = assay: as above
HLA-A*30:02 = assay: as above
HLA-B*15:01 = assay: IEDB peptide-MHC binding, purified MHC/direct/fluorescence; filed as Kd, often an IC50 or EC50 that approximates it; ≥ and ≤ were set here for values at or beyond the usual limits of such assays
HLA-A*02:06 = assay: IEDB peptide-MHC binding, purified MHC/competitive/radioactivity; filed as Kd, often an IC50 or EC50 that approximates it; ≥ and ≤ were set here for values at or beyond the usual limits of such assays
HLA-A*03:01 [3] = assay: IEDB peptide-MHC binding, purified MHC/direct/fluorescence; filed as Kd, often an IC50 or EC50 that approximates it; ≥ and ≤ were set here for values at or beyond the usual limits of such assays; conditions: source organism: Mycobacterium tuberculosis
HLA-A*03:01 [4] = assay: IEDB peptide-MHC binding, purified MHC/competitive/radioactivity; filed as Kd, often an IC50 or EC50 that approximates it; ≥ and ≤ were set here for values at or beyond the usual limits of such assays; conditions: source organism: Dengue virus 1 Brazil/97-11/1997
HLA-A*02:03 = assay: as above; conditions: source organism: Vaccinia virus WR
HLA-A*02:02 = assay: as above; conditions: source organism: Vaccinia virus WR
[5] = source organism: Dengue virus 2 Jamaica/1409/1983
[6] = source organism: Dengue virus 4 Philippines/H241/1956
[7] = source organism: Vaccinia virus WR
[8] = source organism: Dengue virus 2 Peru/IQT2913/1996
[9] = source organism: Encephalitozoon cuniculi
[10] = source organism: Dengue virus 1 Brazil/97-11/1997
[11] = source organism: SARS coronavirus Tor2
[12] = source organism: Mammarenavirus guanaritoense
[13] = source organism: Mammarenavirus juninense
[14] = source organism: Dengue virus 3 Martinique/1243/1999
[15] = source organism: Vibrio vulnificus
[16] = source organism: Lassa virus Josiah

Sequence: INRFTMKHK
- Kd (HLA-A*30:01; [5]): 7950 nM

Sequence: ITDFVGKTV
- Kd (HLA-A*01:01 [1]; source organism: Dengue virus 3 Singapore/8120/1995): ≥ 39700 nM

Sequence: ITTATRCPTQ
- Kd (HLA-A*30:01; [6]): 9440 nM

Sequence: KARCNHLTK
- Kd (HLA-A*30:01; [7]): 0.214 nM

Sequence: KARNTPFNM
- Kd (HLA-A*30:01; [8]): 169 nM

Sequence: KEMAETQHG
- Kd (HLA-B*44:02; [6]): 143 nM

Sequence: KFKLTLPNK
- Kd (HLA-A*30:01; [7]): 12.1 nM

- Kd (HLA-A*69:01; [9]): ≥ 20000 nM
- Kd (HLA-A*02:01; [9]): 40.4 nM
Sequence: KMYEYVFKG

Sequence: KTIWEIPQK
- Kd (HLA-A*30:01; [7]): 11.8 nM

Sequence: KVDWNQFTY
- Kd (HLA-A*01:01 [2]; source organism: Giardia lamblia ATCC 50803): 2 nM

Sequence: KVKNHIPNI
- Kd (HLA-A*30:01; [7]): 0.684 nM

Sequence: KVRSNAAIG
- Kd (HLA-A*30:01; [10]): 13.6 nM

Sequence: KVSCTILAA
- Kd (HLA-A*30:01; [5]): 67.7 nM

Sequence: KYKYFSGAL
- Kd (HLA-A*26:01; [11]): ≥ 75.5 µM
- Kd (HLA-A*23:01; [11]): 15000 nM
- Kd (HLA-A*24:02; [11]): ≥ 25700 nM
- Kd (HLA-A*29:02; [11]): ≥ 25000 nM
- Kd (HLA-A*30:02; [11]): ≥ 44600 nM
- Kd (HLA-A*01:01 [1]; [11]): ≥ 78100 nM

Sequence: LCANEYTGNY
- Kd (HLA-A*26:01; [11]): ≥ 29.9 µM
- Kd (HLA-A*23:01; [11]): ≥ 70000 nM
- Kd (HLA-A*24:02; [11]): ≥ 70300 nM
- Kd (HLA-A*29:02; [11]): 98.3 nM
- Kd (HLA-A*30:02; [11]): 80.4 nM
- Kd (HLA-A*01:01 [1]; [11]): 445 nM

Sequence: LCLIPTAMAF
- Kd (HLA-A*23:01; [6]): 1080 nM

Sequence: LDEWSVATFY
- Kd (HLA-A*26:01; [11]): ≥ 21.4 µM
- Kd (HLA-A*23:01; [11]): ≥ 47900 nM
- Kd (HLA-A*24:02; [11]): ≥ 32900 nM
- Kd (HLA-A*29:02; [11]): 95.2 nM
- Kd (HLA-A*30:02; [11]): 495 nM
- Kd (HLA-A*01:01 [1]; [11]): 2380 nM

Sequence: LFHAFFGAL
- Kd (HLA-A*23:01; [12]): 12500 nM
- Kd (HLA-A*24:02; [12]): ≥ 31900 nM
- Kd (HLA-A*29:02; [12]): 3650 nM

Sequence: LFQFFVFLV
- Kd (HLA-A*26:01; [13]): ≥ 57.2 µM
- Kd (HLA-A*23:01; [13]): 15700 nM
- Kd (HLA-A*24:02; [13]): 18800 nM
- Kd (HLA-A*29:02; [13]): 437 nM
- Kd (HLA-A*30:02; [13]): 986 nM
- Kd (HLA-A*01:01 [1]; [13]): 531 nM

Sequence: LFSGVSWTM
- Kd (HLA-A*24:02; [10]): 449 nM

Sequence: LLFLPKAAY
- Kd (HLA-B*15:01; [13]): 99.4 nM

Sequence: LRFLAIPPTA
- Kd (HLA-A*30:01; [10]): 3130 nM

Sequence: LSRKTFDTEY
- Kd (HLA-A*30:02; [10]): 975 nM
- Kd (HLA-A*01:01 [1]; [10]): 503 nM

Sequence: LTTRNGEPHM
- Kd (HLA-A*30:01; [5]): 13700 nM

Sequence: MANIFRGSY
- Kd (HLA-A*30:02; [5]): 113 nM

Sequence: MWHVTRGAVL
- Kd (HLA-A*23:01; [5]): 1460 nM
- Kd (HLA-A*24:02; [5]): 1690 nM

Sequence: NAICSAVPVH
- Kd (HLA-A*30:01; [14]): 2950 nM

Sequence: NEWITDFAG
- Kd (HLA-B*44:02; [14]): 6550 nM

Sequence: NFGTFYEHI
- Kd (HLA-A*23:01; [12]): 451 nM
- Kd (HLA-A*24:02; [12]): 1950 nM
- Kd (HLA-A*29:02; [12]): 400 nM

Sequence: NLITCNDHY
- Kd (HLA-A*01:01 [2]; [13]): ≥ 20000 nM

Sequence: NMDRAVKLY
- Kd (HLA-A*01:01 [2]; source organism: Influenza A virus (A/Hong Kong/488/97(H5N1))): 584 nM

Sequence: PTSEIQLTDY
- Kd (HLA-A*26:01; [10]): ≥ 69.7 µM
- Kd (HLA-A*01:01 [1]; [10]): 255 nM

Sequence: QGKRTLTPQP
- Kd (HLA-A*30:01; [14]): 1270 nM

Sequence: QNYVCKHTY
- Kd (HLA-A*30:02; [14]): ≥ 76900 nM

Sequence: QSDTVFDYY
- Kd (HLA-A*23:01; [7]): ≥ 32500 nM
- Kd (HLA-A*24:02; [7]): ≥ 72700 nM

Sequence: QVGTYGLNTF
- Kd (HLA-A*23:01; [5]): 790 nM

Sequence: QWFVERNMVI
- Kd (HLA-A*23:01; [14]): 111 nM
- Kd (HLA-A*24:02; [14]): 121 nM

Sequence: RAIASMIMY
- Kd (HLA-A*30:01; [7]): 71.1 nM

Sequence: RLSDPRFSQ
- Kd (HLA-A*69:01; [15]): 121 nM
- Kd (HLA-A*02:01; [15]): ≥ 20000 nM

Sequence: RRRTAGMII
- Kd (HLA-A*30:01; [8]): 4830 nM

Sequence: RSKAFSNCY
- Kd (HLA-A*01:01 [2]; source organism: Influenza A virus (A/duck/Ontario/05/00 (H3N2))): ≥ 20000 nM

Sequence: RSKNTIIIA
- Kd (HLA-A*30:01; [7]): 0.163 nM

Sequence: RTIMAVLFV
- Kd (HLA-A*02:06; [6]): 19.4 nM
- Kd (HLA-A*30:01; [6]): 135 nM

Sequence: RYMGEDGCWY
- Kd (HLA-A*24:02; [14]): 828 nM
- Kd (HLA-A*30:02; [14]): ≥ 69700 nM

Sequence: SITLATGPLT
- Kd (HLA-A*30:01; [10]): 3930 nM

Sequence: SKIPGGNMY
- Kd (HLA-A*30:02; [10]): 2450 nM

Sequence: SSVNMISRM
- Kd (HLA-A*26:01; [5]): 1.34 µM

Sequence: STVSQLAKRF
- Kd (HLA-A*26:01; source organism: Dengue virus 1 Nauru/West Pac/1974): 3.59 µM

Sequence: TFIRSTMPL
- Kd (HLA-A*23:01; [6]): 255 nM

Sequence: TSEIQLTDY
- Kd (HLA-A*01:01 [1]; [10]): 323 nM

Sequence: TSETFSMGL
- Kd (HLA-A*01:01 [1]; [6]): 7690 nM

Sequence: TSRNNHLPA
- Kd (HLA-A*30:01; source organism: Vaccinia virus Copenhagen): 15.2 nM

Sequence: TTMRGAKRM
- Kd (HLA-A*26:01; [5]): 8.19 µM

Sequence: TWLVHKQWF
- Kd (HLA-A*23:01; [6]): 282 nM
- Kd (HLA-A*24:02; [6]): 302 nM

Sequence: VDYMPVMKRY
- Kd (HLA-A*30:02; [6]): 76.4 nM

Sequence: VLCPYMPKV
- Kd (HLA-A*69:01; source organism: West Nile virus): 1610 nM

Sequence: VLIDAGLPK
- Kd (HLA-A*03:01 [3]): 319 nM

Sequence: VTARWLWGFL
- Kd (HLA-A*01:01 [1]; source organism: Dengue virus 1 Singapore/S275/1990): 8660 nM

Sequence: VVRVQRPAK
- Kd (HLA-A*03:01 [4]): 126 nM
- Kd (HLA-A*30:01; [10]): 22.4 nM

Sequence: WQGDTGITY
- Kd (HLA-B*15:01; source organism: Mycobacterium tuberculosis variant bovis): 799 nM

Sequence: YDQENPYRTW
- Kd (HLA-B*44:02; [6]): 156 nM

Sequence: YLAENTFVV
- Kd (HLA-A*69:01; source organism: Mycobacterium tuberculosis): 15.7 nM

Sequence: YQPSSGCYI
- Kd (HLA-A*23:01; [16]): 5410 nM
- Kd (HLA-A*24:02; [16]): 7220 nM
- Kd (HLA-A*29:02; [16]): 14500 nM

Sequence: YSQVNPLTL
- Kd (HLA-A*01:01 [1]; [10]): 1010 nM

Sequence: YVLFVKKML
- Kd (HLA-A*02:06; [7]): 2540 nM
- Kd (HLA-A*02:03): 12 µM
- Kd (HLA-A*02:02): ≥ 31.1 µM
